Patent publication US12674174B2, “Protoporphyrinogen oxidase (PPO) resistance plant” (PLANTARC BIO LTD., priority 2022, dated 2026)
Changes are numbered by the printed parent chain. Names and notes keep the numbering of the source.

B1: SEQ ID NO: 102: Glycine max protoporphyrinogen oxidase 1, chloroplastic, XP_003536005.1 (protein)
chain: MVSVFNEILFPPNQTLLRPSLHSPTSFFTSPTRKFPRSRPNPILRCSIAEESTASPPKTRDSAPVDCVVVGGGVSGLCIAQALATKHANANVVVTEARDRVGGNITTMERDGYLWEEGPNSFQPSDPMLTMVVDSGLKDELVLGDPDAPRFVLWNRKLRPVPGKLTDLPFFDLMSIGGKIRAGFGALGIRPPPPGHEESVEEFVRRNLGDEVFERLIEPFCSGVYAGDPSKLSMKAAFGKVWKLEKNGGSIIGGTFKAIQERNGASKPPRDPRLPKPKGQTVGSFRKGLTMLPDAISARLGNKVKLSWKLSSISKLDSGEYSLTYETPEGVVSLQCKTVVLTIPSYVASTLLRPLSAAAADALSKFYYPPVAAVSISYPKEAIRSECLIDGELKGFGQLHPRSQGVETLGTIYSSSLFPNRAPPGRVLLLNYIGGATNTGILSKTDSELVETVDRDLRKILINPNAQDPFVVGVRLWPQAIPQFLVGHLDLLDVAKASIRNTGFEGLFLGGNYVSGVALGRCVEGAYEVAAEVNDFLTNRVYK
modifications: Glycine max
B2: SEQ ID NO: 101: 4IVO_B. Structure of human protoporphyrinogen IX oxidase(R59Q) [Homo sapiens] (protein, listed as Homo sapiens)
chain: MGRTVVVLGGGISGLAASYHLSRAPCPPKVVLVESSERLGGWIRSVRGPNGAIFELGPQGIRPAGALGARTLLLVSELGLDSEVLPVRGDHPAAQNRFLYVGGALHALPTGLRGLLRPSPPFSKPLFWAGLRELTKPRGKEPDETVHSFAQRRLGPEVASLAMDSLCRGVFAGNSRELSIRSCFPSLFQAEQTHRSILLGLLLGAGRTPQPDSALIRQALAERWSQWSLRGGLEMLPQALETHLTSRGVSVLRGQPVCGLSLQAEGRWKVSLRDSSLEADHVISAIPASVLSELLPAEAAPLARALSAITAVSVAVVNLQYQGAHLPVQGFGHLVPSSEDPGVLGIVYDSVAFPEQDGSPPGLRVTVMLGGSWLQTLEASGCVLSQELFQQRAQEAAATQLGLKEMPSHCLVHLHKNCIPQYTLGHWQKLESARQFLTAHRLPLTLAGASYEGVAVNDCIESGRQAAVSVLGTEPNS
B3: SEQ ID NO: 98: PPO from Hesseltinella sp. Protein. (protein, listed as Hesseltinella sp.)
chain: MPRSIVVLGGGISGLSAAYYLSRLVPQAHIRLIESNKRAGGFIKTQQVNDHLIFEAGPRTLRPHGTSGTVLLDMIKDLDLSPLLVNIPKSHPSAQHRYIEYHGQINQLPSGLADMLLHSPPIMDSVITAGMREPFLARASTTKDESLYNFMERRFNEHTALNLMGAMAHGIYAGDAKQLSVHSTFPILAACEQEYGSVVLGMLSGKLSVESPRERQLADACRAKDPEWFKQMQQSSVLGFLPGLGALPSRLTQFLSSQPNVSMQLGETVSRLDGQSSHQIEITTSQGQIYHADHIVSTLPSHALARISMPTTTSLPHLTHNPSADVALVNLAYEKCKVKPGLDGFGFLTPHADTMPPSQFPGLLGMIFDSNSLGVQDQDSNMVRFTAMIGGADWNLAFGSLHDNDAISSKALTMATAALSKYLEIHESPAHYHCRILRQCIPQYLVGHRQRMNELHAALQHSFGHTMSVTGASYLGVSVPDCIKHSRMLIEDLVDTGALGSKQAVITGLEKVTLPMYYKL
B4: SEQ ID NO: 100: PPO from Rhizophagus sp. Protein. (protein, listed as Rhizophagus sp.)
chain: MSSPNNFVILGGGISGLSAAWYLSRYAPSTTKILVLEGSNRFGGWIKSKRVGQHKILFEQGPRTLRPNGIGGSVVLDMVNRLNLIPSLHAVTKDDDAAKDRFIYYPDKIVKLPGTSLLSSMKSVFTNNFLLKSIPSILFEPFIKPARNYHDETIHEFISRRFSKSISDILISALIHGIYAGDINKLSIRSTFTRLYNLEQKYGSVIKGLLMSNKEEFLSQQDKYLLKIINDENKDFLSIFKNVSLYSFKDGIEQLSSAIVNDLKNKENVQLKTNNQVTKLEFGENVKIFTNEAVYEADHVISALPSRALYNILPEKDVLPHLNYNPSVSVATINLAYAHPKILPVKGFGYLIPQSTPHNPYHVLGVVFDSNAMPLQDEPSRTYTKLTIMMGGHYFNSISEKDDFPKKEILLQQSIEILEKHLGIYSTPLYYLVDIQKNCIPQYYVGHYSRLKELHYAIKNHYANRLSVTGASYWGISINDCVLNSAKLVLNILSNSPNVVTGLEEVEIQNEHYL
B5: SEQ ID NO: 8: PPO from Aspergillus sp. fused to cTP. Chimeric Protein; cloned from SEQ ID NO: 1 (protein)
chain: MELSLLRPTTQSLLPSFSKPNLRLNVYKPLRLRCSVAGGMRLPCASSRVFRQVRAPLALLSRGQRHAVHTKQFDAAVIGGGITGLTAAYQLSRDPSCSKVTLYEKSPHLGGWLSSEQIPVPGGHVVFEYGPRTLRTSSPSCLPMMDLIMNLDLLDDVLICDKKSPAAQNRYIYYPDHLVRLPFPPTEGLLKTAWTLLMEPLFETFLYSAIFEKPKRAENTHILSRDESVADFVSRRFSPKISENLASAVMAGIFAGDVNRLSAEMAIGYVRELEKRYGSIVDGMMTQRASEMRAMPMDELLALESVAVPSHSDDRYWKSLRAVVSDASVLTLKNGLGQLTDAMAAQLRSSRNVEVVTGTEVTSLSQNPKTQDLTIGFGKNESKTHNRVIATHAPSSLARQIQNTKVGVVPSDTIRDLGQNNYAVTVMVVNLYYEDPDLVPVEGFGYLLPSSVPFEQNPERALGVIFGSQSSEGQDTAPGTKLTVMMGGHLWDGWSESDYPDPDKAIEMAQALLHRHLGIKTAPSVARARLLRDAIPQYTVGHLSRMKELSHSVRSDFHKRLTLAGAWYGTVGIGVVDCIRQGYLASSYGVGSKKLGPGNSRRPWTKHDFHNWELEGGIATSPVRLDNVHVTERQHY
B6: SEQ ID NO: 9: PPO from Aspergillus sp. fused to cTP. Chimeric Protein; cloned from SEQ ID NO: 2 (protein)
chain: B5 chain with V49A, S61H, P107S, S325T, K383R, M485I, L625F
B7: SEQ ID NO: 10: PPO from Fusarium sp. fused to cTP. Chimeric Protein; cloned from SEQ ID NO: 3 (protein)
chain: MELSLLRPTTQSLLPSFSKPNLRLNVYKPLRLRCSVAGGMSRRRAESTAVALLSSPAKSHLQPPLRRLDGIRSLSTSSALARRRPIVACNYTQSFNNGRTFVSQAKDANIAVLGGGLTGLTAAYYLAKKLPSTAKITLYESSDRLGGWIKTDRVPVDIEGKSGTLSFERGARSLSSLVGNTFRFDDLVLYDLALDLGLAINSPSQQPRYIYYPDHLVPTPPNISIFDMLREPLYLEIIGASLGLGINSLRKRTLPSKDYSVSEWLYAVSNSRKGIGNLASAMMHGIYGGDIHKLSARCVLDRLYWGWYLPNPGLSVRPMPVAEQALLETLGQDKQIQKMALEPRSALVDFGDKGMESLPQALSAALREQPNITIKTGEAVQDVVYNKANQQVHITSSNAKDNSKHNSKVYDKVISTLSAQDIALLAGNKLPSLSTAHSVSVMTVNIWFPQENLKPPGFGYLIPNSVAPELNPEHALGVFFDSDVQTRSKDEPAGTKLFVLMGGHYYDRPDVTPPTEEEAIIQARNLLERHLGIPRDAPAYATANFARECIPQHYVGHQDRLKAAHTELTRNFGGRLAVAGGSFTRIGAVASLRAGYDAATAAKKGLEATGLEYLNDIQQFSVVATSHIPVRHFK
B8: SEQ ID NO: 12: PPO from Fusarium sp. fused to cTP. Chimeric Protein; cloned from SEQ ID NO: 5 (protein)
chain: B7 chain with L249V, H627Q
B9: SEQ ID NO: 1: PPO from Aspergillus sp. Protein. (protein, listed as Aspergillus sp.)
chain: MRLPCASSRVFRQVRAPLALLSRGQRHAVHTKQFDAAVIGGGITGLTAAYQLSRDPSCSKVTLYEKSPHLGGWLSSEQIPVPGGHVVFEYGPRTLRTSSPSCLPMMDLIMNLDLLDDVLICDKKSPAAQNRYIYYPDHLVRLPFPPTEGLLKTAWTLLMEPLFETFLYSAIFEKPKRAENTHILSRDESVADFVSRRFSPKISENLASAVMAGIFAGDVNRLSAEMAIGYVRELEKRYGSIVDGMMTQRASEMRAMPMDELLALESVAVPSHSDDRYWKSLRAVVSDASVLTLKNGLGQLTDAMAAQLRSSRNVEVVTGTEVTSLSQNPKTQDLTIGFGKNESKTHNRVIATHAPSSLARQIQNTKVGVVPSDTIRDLGQNNYAVTVMVVNLYYEDPDLVPVEGFGYLLPSSVPFEQNPERALGVIFGSQSSEGQDTAPGTKLTVMMGGHLWDGWSESDYPDPDKAIEMAQALLHRHLGIKTAPSVARARLLRDAIPQYTVGHLSRMKELSHSVRSDFHKRLTLAGAWYGTVGIGVVDCIRQGYLASSYGVGSKKLGPGNSRRPWTKHDFHNWELEGGIATSPVRLDNVHVTERQHY

system: Arabidopsis plants; details: Table 1; yes/no

**Q.** B1 was tested. Which “High concentration herbicide tolerance” value did it give?
**A.** no

**Q.** For B2, which “High concentration herbicide tolerance” value is on record?
**A.** no

**Q.** How did the “High concentration herbicide tolerance” value turn out when B3 was run?
**A.** yes

same assay, conditions: Table 2; yes/no; FIG. 6C legend: Star 1.25 kg/hectare

**Q.** For B4, which Herbicide tolerance is on record?
**A.** no

**Q.** For B2, which Herbicide tolerance is on record?
**A.** no

**Q.** With B3 as the molecule, how does the Herbicide tolerance read?
**A.** yes

system: transgenic Arabidopsis plants; type: in vivo; details: Aurora 0.01% to 0.5%; compared to control plants
From the text: (SEQ ID NO: 8 was cloned from SEQ ID NO: 1, SEQ ID NO: 9 was cloned from SEQ ID NO: 2, SEQ ID NO: 10 was cloned from SEQ ID NO: 3, SEQ ID NO: 11 was cloned from SEQ ID NO: 4, SEQ ID NO: 12 was cloned from SEQ ID NO: 5, SEQ ID NO: 13 was cloned from SEQ ID NO: 6 SEQ ID NO: 14 was cloned from SEQ ID NO: 7). […] FIG. 1B summarizes the results of the three experiments described hereinabove.

**Q.** For B5, which “level of resistance against Aurora (in words)” value is on record?
**A.** very high levels of resistance

**Q.** B6 was tested. Which “level of resistance against Aurora (in words)” value did it give?
**A.** very high levels of resistance

**Q.** Which “level of resistance against Aurora (in words)” value does the source give for B7 here?
**A.** not against Aurora

**Q.** How did the “level of resistance against Aurora (in words)” value turn out when B8 was run?
**A.** not against Aurora

**Q.** With B9 as the molecule, how does the “level of resistance against Aurora (in words)” value read?
**A.** very high levels of resistance

same assay, conditions: Strike 0.01% to 1%

**Q.** B7 was tested. Which “level of resistance against Strike (in words)” value did it give?
**A.** high levels of resistance

**Q.** How did the “level of resistance against Strike (in words)” value turn out when B8 was run?
**A.** high levels of resistance

same assay, conditions: Strike 0.01% to 1%; 5 orders of magnitude

**Q.** With B5 as the molecule, how does the “level of resistance to Strike, more tolerant to treatment as compared to control plants” value (“level of resistance … compared to control plants” below) read?
**A.** about 10^5

**Q.** How did the “level of resistance … compared to control plants” value turn out when B6 was run?
**A.** about 10^5

**Q.** Which “level of resistance … compared to control plants” value does the source give for B7 here?
**A.** about 10^5

**Q.** B8 was tested. Which “level of resistance … compared to control plants” value did it give?
**A.** about 10^5

**Q.** Which “level of resistance … compared to control plants” value does the source give for B9 here?
**A.** about 10^5
